According to patent US20120165340:

Biological target: FLAG-HA-PTEN, P60484
Sequence (P60484 whole entry): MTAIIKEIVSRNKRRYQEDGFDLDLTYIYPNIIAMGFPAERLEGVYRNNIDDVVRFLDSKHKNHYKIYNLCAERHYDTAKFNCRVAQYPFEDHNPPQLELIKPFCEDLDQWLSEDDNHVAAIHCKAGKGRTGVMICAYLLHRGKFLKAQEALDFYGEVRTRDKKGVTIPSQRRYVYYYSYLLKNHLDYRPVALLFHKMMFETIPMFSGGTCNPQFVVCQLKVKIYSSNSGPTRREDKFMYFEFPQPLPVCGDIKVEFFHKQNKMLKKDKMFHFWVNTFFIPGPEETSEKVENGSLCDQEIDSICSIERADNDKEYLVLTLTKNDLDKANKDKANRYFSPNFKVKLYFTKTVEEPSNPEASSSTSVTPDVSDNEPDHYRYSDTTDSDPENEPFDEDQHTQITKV

B1: Lyn (protein)
chain: GCIKSKGKDSLSDDGVDLKTQPVRNTERTIYVRDPTSNKQQRPVPESQLLPGQRFQTKDPEEQGDIVVALYPYDGIHPDDLSFKKGEKMKVLEEHGEWWKAKSLLTKKEGFIPSNYVAKLNTLETEEWFFKDITRKDAERQLLAPGNSAGAFLIRESETLKGSFSLSVRDFDPVHGDVIKHYKIRSLDNGGYYISPRITFPCISDMIKHYQKQADGLCRRLEKACISPKPQKPWDKDAWEIPRESIKLVKRLGAGQFGEVWMGYYNNSTKVAVKTLKPGTMSVQAFLEEANLMKTLQHDKLVRLYAVVTREEPIYIITEYMAKGSLLDFLKSDEGGKVLLPKLIDFSAQIAEGMAYIERKNYIHRDLRAANVLVSESLMCKIADFGLARVIEDNEYTAREGAKFPIKWTAPEAINFGCFTIKSDVWSFGILLYEIVTYGKIPYPGRTNADVMTALSQGYRMPRVENCPDELYDIMKMCWKEKAEERPTFDYLQSVLDDFYTATEGQYQQQP
B1 was tested, and the “phosphorylation of PTEN on Y240 (Western blot with anti-pY240)” value was “Upon co-expression of the Lyn cDNA with PTEN in HEK 293 cells, we observed a robust phosphorylation of PTEN on Y240” and the “phosphorylation of Y240 of PTEN (Western blot, FIG. 15)” value was “the phosphorylation of Y240 is much greater in the presence of lyn than when src is expressed with PTEN”.
